Blank lines part the entries; values can stand above or below the molecule they belong to. Positions of bridges follow the written chain, without caps; N, C: chain ends. Non-standard residues stand in square brackets, D forms with d. Residues, ends and D or L forms follow the SMILES beside them. No end group written: not given here. d2Nal = N[C@H](Cc1ccc2ccccc2c1)C(=O)O; Nle = CCCC[C@H](N)C(=O)O
Experiments:
[1] = target: T1, human MC3R (Homo sapiens, UniProt P41968); assay: cAMP accumulation assay (HTRF), antagonist activity at MC3R; type: cell-based; conditions: for Hill Coefficient / Top (%): dose-response fit, MC3R
T1 construct: expressed in transfected cells; host or cells: HEK293/CRE-luc/MC3R
Procedure: (§1) The antagonist activity of exemplary non-naturally occurring melanocortin analogs (SEQ ID NOs: 3, 4, 6, 9-11, 14, 15, and 291-309) at the melanocortin 3 receptor (MC3R) and melanocortin 4 (MC4R) receptor was measured via cAMP accumulation assay, according to the following procedure.
(§2) Recombinant cell lines shown in Table 1 were stimulated with melanocortin receptor antagonists and evaluated for cyclic adenosine monophosphate (cAMP) levels as a measurement of receptor activation. cAMP levels were quantified using Homogeneous Time-Resolved Fluorescence (HTRF). The stimulation and CAMP measurement were performed sequentially. First, the compound stimulated the G-protein coupled receptor (GPCR) which then induced downstream signaling, which was measured soon after. Cell lines and stimulated receptors used are detailed in Table 1.
(§3) Twenty-seven exemplary synthetic peptides were tested for antagonist activity at the human MC3R and MC4R at concentrations ranging from 0.1 nM to 1,000 nM. After stimulation, the level of cyclic adenosine monophosphate (CAMP) in each well was quantified via Homogenous Time-Resolved Fluorescence (HTRF) as a measurement of receptor activity. Dose-response curves and estimated IC50 values were then obtained for each antagonist peptide against the MC3R and MC4R. HS024 (TFA) and was used as a positive control for the antagonist activity of MC3R (FIG. 1A) and MC4R (FIG. 1B).

[2] = target: T2, human MC4R (Homo sapiens, UniProt P32245); assay: cAMP accumulation assay (HTRF), antagonist activity at MC4R; type: cell-based; conditions: for Hill Coefficient / Top (%): dose-response fit, MC4R
T2 construct: expressed in transfected cells; host or cells: HEK293/MC4R/CRE-GFP
Procedure: as §1, §2, §3

[3] = target: human melanocortin 4 receptor (MC4R) (human, UniProt P32245 1-332); assay: cell-based or functional assay
[4] = target: human melanocortin 3 receptor (MC3R) (human, UniProt P41968 1-323); assay: cell-based or functional assay
Chain of human melanocortin 3 receptor (MC3R) (P41968 whole entry): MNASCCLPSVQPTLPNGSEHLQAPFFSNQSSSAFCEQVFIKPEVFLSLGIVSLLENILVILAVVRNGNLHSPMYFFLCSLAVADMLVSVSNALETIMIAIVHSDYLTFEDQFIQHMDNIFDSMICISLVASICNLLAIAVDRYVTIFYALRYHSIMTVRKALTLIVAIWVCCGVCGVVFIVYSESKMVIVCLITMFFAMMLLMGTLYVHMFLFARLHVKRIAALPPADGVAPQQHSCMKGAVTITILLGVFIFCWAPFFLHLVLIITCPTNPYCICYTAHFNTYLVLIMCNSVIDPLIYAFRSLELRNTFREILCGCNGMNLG

T1 sequence (P41968 whole entry): as above
T2 sequence (P32245 whole entry): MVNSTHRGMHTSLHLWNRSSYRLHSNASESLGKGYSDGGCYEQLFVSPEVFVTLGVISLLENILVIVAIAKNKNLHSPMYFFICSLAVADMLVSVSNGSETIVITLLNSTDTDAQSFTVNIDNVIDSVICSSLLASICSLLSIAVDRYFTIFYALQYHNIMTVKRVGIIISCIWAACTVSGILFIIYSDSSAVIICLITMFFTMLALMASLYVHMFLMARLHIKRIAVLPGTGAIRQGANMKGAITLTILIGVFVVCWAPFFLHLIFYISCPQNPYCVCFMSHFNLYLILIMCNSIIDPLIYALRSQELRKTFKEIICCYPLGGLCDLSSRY
Chain of human melanocortin 4 receptor (MC4R) (P32245 whole entry): as above

Molecule: VDPFFRWKVP [B9]
Max Activation % [3]: -3.71%
Max Activation % [4]: 1.08%

B1: C2 (peptide)
peptide: Ac-LDPWRWKVP-NH2
modifications: lactam 2-7
SMILES: CC(=O)N[C@@H](CC(C)C)C(=O)N[C@H]1CC(=O)NCCCC[C@@H](C(=O)N[C@H](C(=O)N2CCC[C@H]2C(N)=O)C(C)C)NC(=O)[C@H](Cc2c[nH]c3ccccc23)NC(=O)[C@H](CCCNC(=N)N)NC(=O)[C@H](Cc2c[nH]c3ccccc23)NC(=O)[C@@H]2CCCN2C1=O
Max Activation % [3]: -3.3%
Max Activation % [4]: 0.27%

Molecule: LDPWRWKVP (lactam 2-7) [C3]
Max Activation % [3]: 8.07%
Max Activation % [4]: 3.32%

Molecule: IPFFRWVP [B5]
Max Activation % [3]: -0.16%
Max Activation % [4]: 0.14%

Molecule: IDPFFRWKVP [B8]
Max Activation % [3]: 13.6%
Max Activation % [4]: 4.86%

B2: A2 (peptide)
peptide: Ac-[Nle]P[d2Nal]RW[dV][dP]-NH2
SMILES: CCCC[C@H](NC(C)=O)C(=O)N1CCC[C@H]1C(=O)N[C@H](Cc1ccc2ccccc2c1)C(=O)N[C@@H](CCCNC(=N)N)C(=O)N[C@@H](Cc1c[nH]c2ccccc12)C(=O)N[C@@H](C(=O)N1CCC[C@@H]1C(N)=O)C(C)C
Max Activation % [4]: 7.92%

Molecule: VPFFRWVP [B6]
Max Activation % [3]: 15.4%
Max Activation % [4]: 5%

Molecule: LDPFFRWKVP [B7]
Max Activation % [3]: -2.96%
Max Activation % [4]: 1.43%

Molecule: IPWRWVP [C5]
Max Activation % [3]: 2.47%
Max Activation % [4]: -0.49%

B3: C1 (peptide)
peptide: Ac-[Nle]DPWRWK[dV][dP]-NH2
modifications: lactam 2-7
SMILES: CCCC[C@H](NC(C)=O)C(=O)N[C@H]1CC(=O)NCCCC[C@@H](C(=O)N[C@@H](C(=O)N2CCC[C@@H]2C(N)=O)C(C)C)NC(=O)[C@H](Cc2c[nH]c3ccccc23)NC(=O)[C@H](CCCNC(=N)N)NC(=O)[C@H](Cc2c[nH]c3ccccc23)NC(=O)[C@@H]2CCCN2C1=O
Max Activation % [3]: 11.1%
Max Activation % [4]: 4.55%

Molecule: LPWRWVP [C4]
Max Activation % [3]: -6.88%
Max Activation % [4]: -0.32%

Continued, values first:

Emax ([1]; HEK293/CRE-luc/MC3R, 0.1 nM to 1,000 nM, read-out: Max Activation %): 24.6%
IC50 ([1]; HEK293/CRE-luc/MC3R, estimated from dose-response curve): > 10 µM
Hill Coefficient [1]: 1.04
Top (%) [1]: 472.61%
Emax ([2]; HEK293, HEK293/MC4R/CRE-GFP, 0.1 nM to 1,000 nM, read-out: Max Activation %): 41.5%
Hill Coefficient [2]: 0.67
Top (%) [2]: 2724.46%
Molecule: CCCC[C@H](NC(C)=O)C(=O)N[C@H]1CC(=O)NCCCC[C@@H](C(=O)N2CCC[C@@H]2C(=O)N[C@@H](C(N)=O)C(C)C)NC(=O)[C@H](Cc2c[nH]c3ccccc23)NC(=O)[C@H](CCCNC(=N)N)NC(=O)[C@@H](Cc2ccc3ccccc3c2)NC(=O)[C@H](Cc2c[nH]cn2)NC(=O)[C@@H]2CCCN2C1=O [Peptide D5, Ac-Nle-c(Asp-Pro-His-Dnal(2′)-Arg-Trp-Lys)-Dpro-Dval-NH2] (Ac-[Nle]DPH[d2Nal]RWK[dP][dV]-NH2; lactam 2-8)

Hill Coefficient [1]: 0.34
Top (%) [1]: 20.30%
Hill Coefficient [2]: 0.69
Top (%) [2]: 729.66%
Molecule: Ac-Leu-c(Asp-Pro-Phe-Phe-Arg-Trp-Lys)-Val-Pro-NH2 (Ac-LDPFFRWKVP-NH2; lactam 2-8; SMILES CC(=O)N[C@@H](CC(C)C)C(=O)N[C@H]1CC(=O)NCCCC[C@@H](C(=O)N[C@H](C(=O)N2CCC[C@H]2C(N)=O)C(C)C)NC(=O)[C@H](Cc2c[nH]c3ccccc23)NC(=O)[C@H](CCCNC(=N)N)NC(=O)[C@H](Cc2ccccc2)NC(=O)[C@H](Cc2ccccc2)NC(=O)[C@@H]2CCCN2C1=O) [Peptide B2]

Hill Coefficient [1]: −0.48
Top (%) [1]: 0.42%
Hill Coefficient [2]: 48.53
Top (%) [2]: −2.85%
Molecule: Ac-Leu-c(Asp-Pro-Trp-Arg-Trp-Lys)-Val-Pro-NH2 (Ac-LDPWRWKVP-NH2; lactam 2-7; SMILES CC(=O)N[C@@H](CC(C)C)C(=O)N[C@H]1CC(=O)NCCCC[C@@H](C(=O)N[C@H](C(=O)N2CCC[C@H]2C(N)=O)C(C)C)NC(=O)[C@H](Cc2c[nH]c3ccccc23)NC(=O)[C@H](CCCNC(=N)N)NC(=O)[C@H](Cc2c[nH]c3ccccc23)NC(=O)[C@@H]2CCCN2C1=O) [Peptide C2]

Hill Coefficient [1]: 0.84
Top (%) [1]: 177.39%
Hill Coefficient [2]: 1.55
Top (%) [2]: 18.76%
Molecule: Ac-Nle-c(Asp-His-Dnal(2′)-Arg-Trp-Pro-Lys)-Dval-Dpro-NH2 (Ac-[Nle]DH[d2Nal]RWPK[dV][dP]-NH2; lactam 2-8; SMILES CCCC[C@H](NC(C)=O)C(=O)N[C@H]1CC(=O)NCCCC[C@@H](C(=O)N[C@@H](C(=O)N2CCC[C@@H]2C(N)=O)C(C)C)NC(=O)[C@@H]2CCCN2C(=O)[C@H](Cc2c[nH]c3ccccc23)NC(=O)[C@H](CCCNC(=N)N)NC(=O)[C@@H](Cc2ccc3ccccc3c2)NC(=O)[C@H](Cc2c[nH]cn2)NC1=O) [Peptide D2]

Hill Coefficient [1]: 1.05
Hill Coefficient [2]: 7.57
Molecule: Ac-Nle-c(Asp-Pro-Phe-Phe-Arg-Trp-Lys)-Dval-Dpro-NH2 (Ac-[Nle]DPFFRWK[dV][dP]-NH2; lactam 2-8; SMILES CCCC[C@H](NC(C)=O)C(=O)N[C@H]1CC(=O)NCCCC[C@@H](C(=O)N[C@@H](C(=O)N2CCC[C@@H]2C(N)=O)C(C)C)NC(=O)[C@H](Cc2c[nH]c3ccccc23)NC(=O)[C@H](CCCNC(=N)N)NC(=O)[C@H](Cc2ccccc2)NC(=O)[C@H](Cc2ccccc2)NC(=O)[C@@H]2CCCN2C1=O) [Peptide B1]

Hill Coefficient [1]: 0.23
Top (%) [1]: 6.49%
Hill Coefficient [2]: 0.08
Top (%) [2]: 51.32%
Molecule: Ac-Nle-c(Asp-Pro-Trp-Arg-Trp-Lys)-Dval-Dpro-NH2 (Ac-[Nle]DPWRWK[dV][dP]-NH2; lactam 2-7; SMILES CCCC[C@H](NC(C)=O)C(=O)N[C@H]1CC(=O)NCCCC[C@@H](C(=O)N[C@@H](C(=O)N2CCC[C@@H]2C(N)=O)C(C)C)NC(=O)[C@H](Cc2c[nH]c3ccccc23)NC(=O)[C@H](CCCNC(=N)N)NC(=O)[C@H](Cc2c[nH]c3ccccc23)NC(=O)[C@@H]2CCCN2C1=O) [Peptide C1]

Hill Coefficient [1]: 12.04
Top (%) [1]: 4.40%
Hill Coefficient [2]: 0.49
Top (%) [2]: 20.03%
Molecule: IDPFFRWKVP [Peptide B8]

Hill Coefficient [1]: −57.42
Top (%) [1]: 0.80%
Hill Coefficient [2]: 10.57
Molecule: IDPWRWKVP [Peptide C8]

Hill Coefficient [1]: −0.76
Top (%) [1]: 736.17%
Hill Coefficient [2]: 1.22
Molecule: IPFFRWVP [Peptide B5]

Hill Coefficient [1]: 13.82
Top (%) [1]: −0.10%
Hill Coefficient [2]: 1.13
Top (%) [2]: 3.02%
Molecule: IPWRWVP [Peptide C5]

Hill Coefficient [1]: −0.84
Top (%) [1]: 7754.77%
Hill Coefficient [2]: −1.76
Top (%) [2]: 516.09%
Molecule: LDPFFRWKVP [Peptide B7]

Hill Coefficient [1]: −0.13
Top (%) [1]: 1.86%
Hill Coefficient [2]: 1.62
Top (%) [2]: 4.61%
Molecule: LDPWRWKVP [Peptide C7]

Hill Coefficient [1]: 0.36
Top (%) [1]: 29.62%
Hill Coefficient [2]: 1.90
Top (%) [2]: 16.60%
Molecule: LPFFRWVP [Peptide B4]

Hill Coefficient [1]: −5.34
Hill Coefficient [2]: −7.31
Top (%) [2]: −1.97%
Molecule: LPWRWVP [Peptide C4]

Hill Coefficient [1]: 1.00
Top (%) [1]: 100.00%
Hill Coefficient [2]: 9.04
Molecule: Leu-c(Asp-Pro-Phe-Phe-Arg-Trp-Lys)-Val-Pro (LDPFFRWKVP; lactam 2-8) [Peptide B3]

Hill Coefficient [1]: 49.34
Top (%) [1]: 3.18%
Hill Coefficient [2]: 0.44
Top (%) [2]: 9.36%
Molecule: Leu-c(Asp-Pro-Trp-Arg-Trp-Lys)-Val-Pro (LDPWRWKVP; lactam 2-7) [Peptide C3]

Hill Coefficient [1]: 2.26
Top (%) [1]: 1.22%
Hill Coefficient [2]: −19.71
Top (%) [2]: −0.55%
Molecule: VDPFFRWKVP [Peptide B9]

Hill Coefficient [1]: 2.95
Top (%) [1]: −64.92%
Hill Coefficient [2]: 0.64
Top (%) [2]: 219.95%
Molecule: VDPWRWKVP [Peptide C9]

Hill Coefficient [1]: 1.62
Top (%) [1]: 4.27%
Hill Coefficient [2]: 0.28
Top (%) [2]: 37.93%
Molecule: VPFFRWVP [Peptide B6]

Hill Coefficient [1]: 1.00
Top (%) [1]: 100.00%
Hill Coefficient [2]: 2.07
Top (%) [2]: 321.26%
Molecule: VPWRWVP [Peptide C6]

From patent US20260098072A1, “METHODS OF STIMULATING APPETITE AND/OR INCREASING BODY WEIGHT USING NON-NATURALLY OCCURRING MELANOCORTIN RECEPTOR ANTAGONIST ANALOGS” (Endevica Bio, Inc., priority 2022, published 2026)
